How the values were obtained:
[1] = molecular target: 28mer peptide of the CXCR5 antigen; test: antigen ELISA; 100 mg/mL formulation, +25C, initial
[2] = molecular target: 28mer peptide of the CXCR5 antigen; test: antigen ELISA; 100 mg/mL formulation, -20C, 9 months
[3] = molecular target: 28mer peptide of the CXCR5 antigen; test: antigen ELISA; 100 mg/mL formulation, +25C, 3 months
[4] = molecular target: 28mer peptide of the CXCR5 antigen; test: antigen ELISA; 100 mg/mL formulation, -20C, 1 month
[5] = molecular target: 28mer peptide of the CXCR5 antigen; test: antigen ELISA; 100 mg/mL formulation, +5C, 12 months
[6] = molecular target: 28mer peptide of the CXCR5 antigen; test: antigen ELISA; 100 mg/mL formulation, -20C, initial
[7] = molecular target: 28mer peptide of the CXCR5 antigen; test: antigen ELISA; PBS 155 mM, 1 h purged with air, 24 h +40C
[8] = molecular target: 28mer peptide of the CXCR5 antigen; test: antigen ELISA; PBS 155 mM, polypropylene, 24 h +40C
[9] = molecular target: 28mer peptide of the CXCR5 antigen; test: antigen ELISA; histidine pH 5.0 prototype B (table title LA_09_029B), 20 mg/mL, T0
[10] = molecular target: 28mer peptide of the CXCR5 antigen; test: antigen ELISA; 100 mg/mL formulation, +25C, 6 months
[11] = molecular target: 28mer peptide of the CXCR5 antigen; test: antigen ELISA; 100 mg/mL formulation, +5C, 15 months
[12] = molecular target: 28mer peptide of the CXCR5 antigen; test: antigen ELISA; 100 mg/mL formulation, +5C, initial
[13] = molecular target: 28mer peptide of the CXCR5 antigen; test: antigen ELISA; PBS 155 mM, clear glass type I as T0, 24 h +40C
[14] = molecular target: 28mer peptide of the CXCR5 antigen; test: antigen ELISA; histidine pH 5.0 prototype A, 20 mg/mL, T0
[15] = molecular target: 28mer peptide of the CXCR5 antigen; test: antigen ELISA; PBS 155 mM, light stress, 24 h +40C
[16] = molecular target: 28mer peptide of the CXCR5 antigen; test: antigen ELISA; 100 mg/mL formulation, +25C, 1 month
[17] = molecular target: 28mer peptide of the CXCR5 antigen; test: antigen ELISA; 100 mg/mL formulation, +5C, 6 months
[18] = molecular target: 28mer peptide of the CXCR5 antigen; test: antigen ELISA; citrate pH 6.0 prototype C, 20 mg/mL, T0
[19] = molecular target: 28mer peptide of the CXCR5 antigen; test: antigen ELISA; 100 mg/mL formulation, -20C, 6 months
[20] = molecular target: 28mer peptide of the CXCR5 antigen; test: antigen ELISA; 100 mg/mL formulation, -20C, 3 months
[21] = molecular target: 28mer peptide of the CXCR5 antigen; test: antigen ELISA; PBS 155 mM, clear glass type I, 24 h +40C
[22] = molecular target: 28mer peptide of the CXCR5 antigen; test: antigen ELISA; acetate pH 5.5 prototype D, 20 mg/mL, T0
[23] = molecular target: 28mer peptide of the CXCR5 antigen; test: antigen ELISA; 100 mg/mL formulation, +5C, 18 months
[24] = molecular target: 28mer peptide of the CXCR5 antigen; test: antigen ELISA; histidine pH 5.0 prototype D, 20 mg/mL, T0
[25] = molecular target: 28mer peptide of the CXCR5 antigen; test: antigen ELISA; acetate pH 5.5 prototype C, 20 mg/mL, T0
[26] = molecular target: 28mer peptide of the CXCR5 antigen; test: antigen ELISA; citrate pH 6.0 prototype B, 20 mg/mL, T0
[27] = molecular target: 28mer peptide of the CXCR5 antigen; test: antigen ELISA; 100 mg/mL formulation, +5C, 9 months
[28] = molecular target: 28mer peptide of the CXCR5 antigen; test: antigen ELISA; 100 mg/mL formulation, -20C, 18 months
[29] = molecular target: 28mer peptide of the CXCR5 antigen; test: antigen ELISA; 100 mg/mL formulation, +5C, 1 month
[30] = molecular target: 28mer peptide of the CXCR5 antigen; test: antigen ELISA; 100 mg/mL formulation, +5C, 3 months
[31] = molecular target: 28mer peptide of the CXCR5 antigen; test: antigen ELISA; 100 mg/mL formulation, -20C, 12 months

B1: Lead CXCR5 Antibody (humanized IgG4 anti-CXCR5 antibody) (antibody, V domains shown)
VH: QVQLKESGPGLVAPSESLSITCTVSGFSLIDYGVNWIRQPPGKGLEWLGVIWGDGTTYYNPSLKSRLSISKDNSKSQVFLKVTSLTTDDTAMYYCARIVYWGQGTLVTVSA
VL: DIVMTQAAPSVAVTPGASVSISCRSSKSLLHSSGKTYLYWFLQRPGQSPQLLIYRLSSLASGVPDRFSGSGSGTAFTLRISRVEAEDVGVYYCMQHLEYPYTFGGGTKLEIKR
**Q.** How did the Potency (Antigen ELISA) EC50 value (in comparison to reference) [1] turn out when B1 was run?
**A.** 75%

**Q.** What about the Potency (Antigen ELISA) EC50 value (in comparison to reference) [2] of the same binder?
**A.** 101%

**Q.** What about the Potency (Antigen ELISA) EC50 value (in comparison to reference) [3] of the same binder?
**A.** 96%

**Q.** What about the Potency (Antigen ELISA) EC50 value (in comparison to reference) [4] of the same binder?
**A.** 107%

**Q.** What about the Potency (Antigen ELISA) EC50 value (in comparison to reference) [5] of the same binder?
**A.** 93%

**Q.** And the Potency (Antigen ELISA) EC50 value (in comparison to reference) [6]?
**A.** 75%

**Q.** What about the EC50% [7] of the same binder?
**A.** 84.3%

**Q.** And the EC50% [8]?
**A.** 107%

**Q.** What about the EC50% [9] of the same binder?
**A.** 118%

**Q.** And the Potency (Antigen ELISA) EC50 value (in comparison to reference) [10]?
**A.** 104%

**Q.** And the Potency (Antigen ELISA) EC50 value (in comparison to reference) [11]?
**A.** 114%

**Q.** And the Potency (Antigen ELISA) EC50 value (in comparison to reference) [12]?
**A.** 75%

**Q.** What about the EC50% [13] of the same binder?
**A.** 62.3%

**Q.** What about the EC50% [14] of the same binder?
**A.** 174%

**Q.** And the EC50% [15]?
**A.** 72.3%

**Q.** And the Potency (Antigen ELISA) EC50 value (in comparison to reference) [16]?
**A.** 121%

**Q.** What about the Potency (Antigen ELISA) EC50 value (in comparison to reference) [17] of the same binder?
**A.** 97%

**Q.** And the EC50% [18]?
**A.** 104%

**Q.** What about the Potency (Antigen ELISA) EC50 value (in comparison to reference) [19] of the same binder?
**A.** 96%

**Q.** What about the Potency (Antigen ELISA) EC50 value (in comparison to reference) [20] of the same binder?
**A.** 84%

**Q.** What about the EC50% [21] of the same binder?
**A.** 131%

**Q.** What about the EC50% [22] of the same binder?
**A.** 91%

**Q.** What about the Potency (Antigen ELISA) EC50 value (in comparison to reference) [23] of the same binder?
**A.** 119%

**Q.** What about the EC50% [24] of the same binder?
**A.** 169%

**Q.** What about the EC50% [25] of the same binder?
**A.** 142%

**Q.** And the EC50% [26]?
**A.** 104%

**Q.** And the Potency (Antigen ELISA) EC50 value (in comparison to reference) [27]?
**A.** 92%

**Q.** And the Potency (Antigen ELISA) EC50 value (in comparison to reference) [28]?
**A.** 127%

**Q.** And the Potency (Antigen ELISA) EC50 value (in comparison to reference) [29]?
**A.** 105%

**Q.** And the Potency (Antigen ELISA) EC50 value (in comparison to reference) [30]?
**A.** 95%

**Q.** What about the Potency (Antigen ELISA) EC50 value (in comparison to reference) [31] of the same binder?
**A.** 96%

From patent US20170232104A1
